The values below are quoted from earlier work in PMC3240149.

For one data set, the target named is MMP-2 (Homo sapiens) (UniProt P08253).
The target of data set [1] is TACE (ADAM-17) (Homo sapiens) (UniProt P78536).
For another data set, the target named is MMP-3 (Homo sapiens) (UniProt P08254).
Sequence of UniProt P08254 (P08254 100-477): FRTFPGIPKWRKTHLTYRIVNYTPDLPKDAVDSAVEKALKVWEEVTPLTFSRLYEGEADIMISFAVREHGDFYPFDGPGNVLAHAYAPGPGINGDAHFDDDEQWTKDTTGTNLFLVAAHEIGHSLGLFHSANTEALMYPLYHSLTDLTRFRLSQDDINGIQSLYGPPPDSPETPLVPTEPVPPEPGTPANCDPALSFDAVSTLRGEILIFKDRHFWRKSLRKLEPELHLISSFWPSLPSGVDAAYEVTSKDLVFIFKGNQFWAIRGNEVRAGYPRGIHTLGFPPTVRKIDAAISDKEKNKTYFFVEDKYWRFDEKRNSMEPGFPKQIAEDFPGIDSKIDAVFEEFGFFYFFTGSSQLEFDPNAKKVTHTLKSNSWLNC

Sequence of UniProt P78536 (P78536 215-671): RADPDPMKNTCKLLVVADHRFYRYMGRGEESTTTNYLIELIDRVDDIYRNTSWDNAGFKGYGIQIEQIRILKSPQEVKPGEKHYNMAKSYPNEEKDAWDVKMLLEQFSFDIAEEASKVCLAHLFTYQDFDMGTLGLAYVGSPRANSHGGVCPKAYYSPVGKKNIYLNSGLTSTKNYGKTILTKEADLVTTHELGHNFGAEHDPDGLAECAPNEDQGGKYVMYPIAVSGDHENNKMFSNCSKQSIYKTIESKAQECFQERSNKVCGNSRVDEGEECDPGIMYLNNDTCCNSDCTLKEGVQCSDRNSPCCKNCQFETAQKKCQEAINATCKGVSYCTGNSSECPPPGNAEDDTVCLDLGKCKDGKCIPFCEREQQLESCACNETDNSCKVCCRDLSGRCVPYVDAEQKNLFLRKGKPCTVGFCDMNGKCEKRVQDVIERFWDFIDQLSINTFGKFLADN
Sequence of UniProt P08253 (P08253 110-660): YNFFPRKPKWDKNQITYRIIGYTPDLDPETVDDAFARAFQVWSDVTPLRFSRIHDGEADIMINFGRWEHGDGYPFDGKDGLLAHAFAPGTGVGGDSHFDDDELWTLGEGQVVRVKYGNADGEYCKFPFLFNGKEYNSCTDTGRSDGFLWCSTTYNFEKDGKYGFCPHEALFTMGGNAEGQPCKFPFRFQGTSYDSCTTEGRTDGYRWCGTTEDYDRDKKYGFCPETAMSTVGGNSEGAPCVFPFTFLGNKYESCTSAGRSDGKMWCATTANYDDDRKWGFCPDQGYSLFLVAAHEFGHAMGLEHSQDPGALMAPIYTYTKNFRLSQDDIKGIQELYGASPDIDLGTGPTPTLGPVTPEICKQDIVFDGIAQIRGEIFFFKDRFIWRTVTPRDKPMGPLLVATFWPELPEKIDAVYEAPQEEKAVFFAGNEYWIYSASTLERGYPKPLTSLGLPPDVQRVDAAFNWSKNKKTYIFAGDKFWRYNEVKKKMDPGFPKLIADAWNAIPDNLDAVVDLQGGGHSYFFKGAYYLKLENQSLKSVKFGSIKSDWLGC

Consider TIMP-2 (from UniProt P16035), for which, in the data set with MMP-2 (Homo sapiens), the inhibition constant (Ki) was 1000 nM. For TIMP-3 (from UniProt P35625), the Ki was 0.182 nM in data set [1] and 67 nM in the data set with MMP-3 (Homo sapiens).

Usually Ki stands for the dissociation constant of the complex between target and ligand, obtained from inhibition or displacement.
